Test results published in patent US20040014638A1 (RIGEL PHARMACEUTICALS, published 2004).
Ends that are not written are not given here.

T1: human CLLD8 protein (human, UniProt Q96T68 1-719, limits assumed)
T1 sequence: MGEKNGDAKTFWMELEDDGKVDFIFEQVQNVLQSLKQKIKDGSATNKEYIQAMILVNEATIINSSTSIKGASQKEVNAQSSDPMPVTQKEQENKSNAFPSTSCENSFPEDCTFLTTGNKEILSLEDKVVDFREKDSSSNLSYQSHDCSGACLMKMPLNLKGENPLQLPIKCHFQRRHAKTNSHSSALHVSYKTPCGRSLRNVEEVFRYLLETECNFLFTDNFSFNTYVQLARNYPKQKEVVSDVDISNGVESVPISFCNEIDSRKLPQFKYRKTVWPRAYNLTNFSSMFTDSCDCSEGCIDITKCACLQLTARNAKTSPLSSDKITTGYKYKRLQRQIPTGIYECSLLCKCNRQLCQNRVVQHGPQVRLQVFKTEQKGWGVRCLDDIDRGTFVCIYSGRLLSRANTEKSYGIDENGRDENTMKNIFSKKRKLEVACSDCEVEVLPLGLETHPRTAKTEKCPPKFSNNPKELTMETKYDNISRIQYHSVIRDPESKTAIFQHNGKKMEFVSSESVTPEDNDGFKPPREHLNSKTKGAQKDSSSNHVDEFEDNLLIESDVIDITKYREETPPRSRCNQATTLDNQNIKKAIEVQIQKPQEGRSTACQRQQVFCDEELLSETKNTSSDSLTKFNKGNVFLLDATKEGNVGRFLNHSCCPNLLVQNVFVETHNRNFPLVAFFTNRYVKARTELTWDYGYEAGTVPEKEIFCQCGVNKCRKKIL


Assays:
human CLLD8 protein [1] = molecular target: T1, human CLLD8 protein; experiment: cell-based or functional assay
human CLLD8 protein [2] = molecular target: T1, human CLLD8 protein; experiment: cell-based or functional assay; remark: listed apart in the source

Row | reporter ratio (GFP under germline ε promoter, A5T4 reporter line) (human CLLD8 protein [1]) | endogenous ε inhibition ratio (TAQMAN quantitative PCR of ε transcription product, +IL-4/+Dox to +IL-4/-Dox) (human CLLD8 protein [2]) | reporter ratio (original clone screen, +IL-4/+Dox over +IL-4/-Dox GFP fluorescence) (human CLLD8 protein [2]) | Binder
1 | 1.62 | 2.82 | 1.55 | AMHGHHGWPWGMEQGCTPLG (also: expressed as BFP-peptide fusion via alpha-helical linker, bait in pGBKT7) [peptide CL02A3 wt]
2 | 1.03 |  |  | RAHGHHGWPWGMEQGCTPLG [peptide CL02A3AM]
3 | 1.16 |  |  | AMHGHHAAPWGMEQGCTPLG [peptide CL02A3GW]
4 | 1.99 |  |  | AMHGHHGWPWGMEQGCTPAA [peptide CL02A3LG]
